Source: patent US20120244226A1, “TREATMENT COMPOSITION AND METHOD” (DEC INTERNATIONAL NZ LIMITED, priority 2009, published 2012)

Columns and labels:
[1] = WO 2008/009798, cited from earlier work
[2] = tested on: tumor necrosis factor-α (TNF-α) produced by LPS activated neutrophils; test: TNF-α production by LPS activated neutrophils (ELISA); type: cell-based, rat; conditions: for TNF-α % Inhibition: relative to LPS only control
Procedure: (§1) The anti-inflammatory properties of the cationic fraction, IDP, and the combination of IDP with chondroitin and glucosamine were determined by measuring their ability to inhibit the production of the inflammatory compounds, tumor necrosis factor-α (TNF-α) and interleukin-6 (IL-6) produced by LPS activated neutrophils. […] Neutrophils were isolated from rat blood and incubated in the presence of LPS. LPS is derived from bacterial cell walls and is used to mimic a 'bacterial infection'. […] Two of these cytokine are TNF-α and IL-6. The concentrations of both cytokines produced by neutrophils exposed to LPS and the various test substances are summarised graphically in FIGS. 1 and 2 respectively. […] Aliquots from each set of triplicates were combined, and duplicates assayed for cytokine concentrations. The plate blank was subtracted from each individual data point. A VersaMax 96-well plate reader was used to colorimetrically assess the production of TNF-α and IL-6 as determined by the ELISA, using Rat TNF-α ELISA kit, R&D Systems, Cat # RTA00, and Rat IL-6 ELISA kit, R&D Systems, Cat # […]. The average cytokine concentration, standard deviation and standard error were calculated for each data set (sample and concentration). Preliminary statistical significance was assessed using independent Student t-tests at α≦0.05.

[3] = tested on: interleukin-6 (IL-6) produced by LPS activated neutrophils; test: IL-6 production by LPS activated neutrophils (ELISA); type: cell-based, rat; conditions: for IL-6 % Inhibition: relative to LPS only control
Procedure: as §1

B1: pure lactoferrin (90%): composition 1 of WO 2008/009798: pure lactoferrin (90%) (protein, UniProt P24627 20-708, looked up)
Lactotransferrin: APRKNVRWCTISQPEWFKCRRWQWRMKKLGAPSITCVRRAFALECIRAIAEKKADAVTLDGGMVFEAGRDPYKLRPVAAEIYGTKESPQTHYYAVAVVKKGSNFQLDQLQGRKSCHTGLGRSAGWIIPMGILRPYLSWTESLEPLQGAVAKFFSASCVPCIDRQAYPNLCQLCKGEGENQCACSSREPYFGYSGAFKCLQDGAGDVAFVKETTVFENLPEKADRDQYELLCLNNSRAPVDAFKECHLAQVPSHAVVARSVDGKEDLIWKLLSKAQEKFGKNKSRSFQLFGSPPGQRDLLFKDSALGFLRIPSKVDSALYLGSRYLTTLKNLRETAEEVKARYTRVVWCAVGPEEQKKCQQWSQQSGQNVTCATASTTDDCIVLVLKGEADALNLDGGYIYTAGKCGLVPVLAENRKSSKHSSLDCVLRPTEGYLAVAVVKKANEGLTWNSLKDKKSCHTAVDRTAGWNIPMGLIVNQTGSCAFDEFFSQSCAPGADPKSRLCALCAGDDQGLDKCVPNSKEKYYGYTGAFRCLAEDVGDVAFVKNDTVWENTNGESTADWAKNLNREDFRLLCLDGTRKPVTEAQSCHLAVAPNHAVVSRSDRAAHVKQVLLHQQALFGKNGKNCPDKFCLFKSETKNLLFNDNTECLAKLGGRPTYEEYLGTEYVTAIANLKKCSTSPLLEACAFLTR
modifications: 90% pure preparation
Q: With B1 as the molecule, how does the “anti-inflammatory activity of the composition on its own” value [1] read?
A: The value was “Neither of these compositions showed significant anti-inflammatory activity”.

Q: What about the “anti-inflammatory activity compared with glucosamine and chondroitin sulphate alone” value ([1]; combined with glucosamine and chondroitin sulphate) of the same molecule?
A: Its value is “significantly better”.

B2: Lactoferrin: milk immune defence protein (P24627), tested on its own (protein, UniProt P24627 20-708, looked up)
Lactotransferrin: APRKNVRWCTISQPEWFKCRRWQWRMKKLGAPSITCVRRAFALECIRAIAEKKADAVTLDGGMVFEAGRDPYKLRPVAAEIYGTKESPQTHYYAVAVVKKGSNFQLDQLQGRKSCHTGLGRSAGWIIPMGILRPYLSWTESLEPLQGAVAKFFSASCVPCIDRQAYPNLCQLCKGEGENQCACSSREPYFGYSGAFKCLQDGAGDVAFVKETTVFENLPEKADRDQYELLCLNNSRAPVDAFKECHLAQVPSHAVVARSVDGKEDLIWKLLSKAQEKFGKNKSRSFQLFGSPPGQRDLLFKDSALGFLRIPSKVDSALYLGSRYLTTLKNLRETAEEVKARYTRVVWCAVGPEEQKKCQQWSQQSGQNVTCATASTTDDCIVLVLKGEADALNLDGGYIYTAGKCGLVPVLAENRKSSKHSSLDCVLRPTEGYLAVAVVKKANEGLTWNSLKDKKSCHTAVDRTAGWNIPMGLIVNQTGSCAFDEFFSQSCAPGADPKSRLCALCAGDDQGLDKCVPNSKEKYYGYTGAFRCLAEDVGDVAFVKNDTVWENTNGESTADWAKNLNREDFRLLCLDGTRKPVTEAQSCHLAVAPNHAVVSRSDRAAHVKQVLLHQQALFGKNGKNCPDKFCLFKSETKNLLFNDNTECLAKLGGRPTYEEYLGTEYVTAIANLKKCSTSPLLEACAFLTR
Q: For B2, which “TNF-α” value ([2]; 1 μg/ml) is on record?
A: Its value is 226.19 pg/mL.

Q: And the “TNF-α % Inhibition” value ([2]; 1 μg/ml)?
A: The value was 17.9%.

Q: And the “TNF-α” value ([2]; 10 μg/ml)?
A: The value was 242.58 pg/mL.

Q: And the “TNF-α % Inhibition” value ([2]; 10 μg/ml)?
A: Its value is 11.9%.

Q: And the “TNF-α” value ([2]; 100 μg/ml)?
A: The value was 325.95 pg/mL.

Q: And the “TNF-α % Inhibition” value ([2]; 100 μg/ml)?
A: The value was −18.4%.

Q: What about the “stimulation of TNF-α levels” value ([2]; highest concentration tested) of the same molecule?
A: The value was 18%.

Q: What about the “effect on TNF-α, in words” value ([2]; lowest concentrations tested) of the same molecule?
A: The value was “no statistically significant effect”.

Q: What about the “effect on TNF-α, in words” value ([2]; over the concentrations tested) of the same molecule?
A: The value was “appeared not to act as anti-inflammatory”.

Q: And the “IL-6” value ([3]; 1 μg/ml)?
A: Its value is 197.88 pg/mL.

Q: And the “IL-6 % Inhibition” value ([3]; 1 μg/ml)?
A: Its value is 33.3%.

Q: And the “IL-6” value ([3]; 10 μg/ml)?
A: Its value is 269.86 pg/mL.

Q: And the “IL-6 % Inhibition” value ([3]; 10 μg/ml)?
A: The value was 9.1%.

Q: And the “IL-6” value ([3]; 100 μg/ml)?
A: Its value is 441.09 pg/mL.

Q: What about the “IL-6 % Inhibition” value ([3]; 100 μg/ml) of the same molecule?
A: The value was −48.6%.

Q: And the “stimulation of IL-6 levels” value ([3]; highest concentration tested)?
A: Its value is 48%.

Q: And the “effect on IL-6, in words” value ([3]; lowest concentrations tested)?
A: Its value is “no statistically significant effect”.

Q: What about the “effect on IL-6, in words” value ([3]; over the concentrations tested) of the same molecule?
A: Its value is “appeared not to act as anti-inflammatory”.
